3 molecules from US6635440, “Method of isolation of RNA-binding compounds” (European Molecular Biology Laboratory) can be followed below.

One data set has as its target MS2 coat protein (Bacteriophage MS2, UniProt P03612 P03612:2-130). In words: cell_activity; GFP repression in yeast, galactose vs glucose. The following applies: tags: expressed from YCpCP in S. cerevisiae RS453; chain copies: 2; hairpin. From the text: (§1) YCpU1A, YCpIRP-1 and YCpCP were used for the galactose inducible expression of U1A, IRP-1 and MS2 coat protein, respectively. These plasmids contain a URA3 selection marker. The sequences and nomenclature of the GFP reporter plasmids are described in FIG. 3. Binding site insertions are represented by Capital letters. Differences between wild type and mutated binding sites are indicated by arrows.
(§2) This reduction specifically requires the presence of the wild type binding site and the cognate binding protein, and is not seen with either the mutant binding sites (FIG. 4c and f) or the non-cognate binding proteins (FIGS. 4a and d).

The next data set has as its target U1A spliceosomal protein (UniProt P09012 P09012:2-282). Described as above. The following applies: tags: expressed from YCpU1A in S. cerevisiae RS453; hairpin.
Description: as §1, §2

Sequence of MS2 coat protein (P03612 2-130, one chain of several): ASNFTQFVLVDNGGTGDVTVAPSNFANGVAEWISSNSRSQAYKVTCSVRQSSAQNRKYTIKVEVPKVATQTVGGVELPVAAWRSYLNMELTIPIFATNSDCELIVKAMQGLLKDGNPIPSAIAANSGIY
Sequence of U1A spliceosomal protein (P09012 2-282, one chain of several): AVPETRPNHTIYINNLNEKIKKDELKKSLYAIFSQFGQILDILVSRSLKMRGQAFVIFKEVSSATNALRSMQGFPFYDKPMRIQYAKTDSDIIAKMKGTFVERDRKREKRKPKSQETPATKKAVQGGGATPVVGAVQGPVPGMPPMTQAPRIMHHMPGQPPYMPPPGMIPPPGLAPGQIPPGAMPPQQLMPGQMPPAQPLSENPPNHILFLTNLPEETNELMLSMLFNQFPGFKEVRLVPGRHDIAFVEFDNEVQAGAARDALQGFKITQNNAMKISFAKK

B1: MSC GFP 5'UTR (ssRNA)
RNA: AAUUAUCUACUUAAGGACCAUCAGGCCUUAAGAACACAAAACUCGAGAACAUAUUUUUAAUAUUAUG
With B1, in the data set with MS2 coat protein, the activity is roughly 70 % repression.

B2: MSA GFP 5'UTR (ssRNA)
RNA: AAUUAUCUACUUAAGGACCAUAAGGCCUUAAGAACACAAAACUCGAGAACAUAUUUUUAAUAUUAUG
On to B2, for which the activity with MS2 coat protein is roughly 50 % repression.

B3: U1Awt (U1 snRNA loop 2) GFP 5'UTR (ssRNA)
RNA: AAUUAUCUACUUAAGCGAUUGCACUCCCGCUUAAGAACACAAAACUCGAGAACAUAUUUUUAAUAUUAUG
Take B3: the activity with U1A spliceosomal protein is roughly 40 % repression.
